For test [1], the target named is 40S ribosomal subunit in ribosome complexes (40S/PIC, monosomes, polysomes), marked by Rps2 (S. cerevisiae (endogenous in yeast)) (UniProt P25443). In words: co-sedimentation; yeast cultures crosslinked with 2% formaldehyde for 60 min on ice before lysis, 7.5–30% sucrose gradients (41,000 rpm, 5 h, SW-41), 0.63 ml fractions up to the 40S peak analysed by western blotting. A general note: In western blotting, separated proteins are transferred to a membrane and probed.

Test [2] has the same target. In words: co-sedimentation; lysates of cycloheximide-treated yeast crosslinked with 1% formaldehyde (30 min on ice, quenched with 0.1 M glycine), 5–45% sucrose gradients, 10 fractions of 1 ml, western blotting of fractions (anti-His for eIF4B, Rps2, eIF4A, eIF4G).

Chain of UniProt P25443 (P25443 whole entry, looked up, tested part not stated, one chain of several): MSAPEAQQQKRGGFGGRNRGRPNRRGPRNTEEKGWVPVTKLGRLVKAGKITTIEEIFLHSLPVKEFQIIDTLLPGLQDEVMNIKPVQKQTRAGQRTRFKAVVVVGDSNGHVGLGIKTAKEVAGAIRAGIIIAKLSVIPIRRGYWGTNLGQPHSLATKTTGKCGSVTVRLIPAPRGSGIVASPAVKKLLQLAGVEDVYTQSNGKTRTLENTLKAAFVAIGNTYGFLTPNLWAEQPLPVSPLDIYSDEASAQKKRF

Regarding “yeast eIF4B lacking the N-terminal domain, C-terminal hexahistidine tag (domain or fragment)”, the percent reduction of eIF4B in Rps2-containing fractions against WT in test [1] came out at 93%. In addition, the percent of the protein in fractions that lack 40S subunits and ribosomes in test [2] was determined as 80%.

B1: yeast eukaryotic initiation factor 4B, wild type, C-terminal hexahistidine tag (natural protein)
chain: MAPPKKTVKKMDLTSFLNDDTFGSSWAEEDVDLNKITIPIETANANTIPLSELAHAKNNSNNTRSGGFGGSFGGRSRLDPALGGGSSDRREEYPVPDAPPYRAVINNIPWDITPEGVQAWVEDGLVKPEAVEEVVLPKNLRDPTRLKGNAFVTLKERADLVAVLKFNGTKLNERTVYVSVAAPRRGGGADVDWSSARGSNFQGDGREDAPDLDWGAARGSNFRGPRREREEVDIDWTAARGSNFQGSSRPPRREREEVDIDWSAARGSNFQGSSRPPRREREEPDIDWSAARGSNFQSSSRPPRREREEPDIDWSAARGSNFQSSSRPPRREREKEEPALDWGAARGAQFGKPQQTKNTYKDRSLTNKKTTDEQPKIQKSVYDVLRTEDDDEDEEAEKQNGDAKENKVDAAVEKLQDKTAQLTVEDGDNWEVVGKK
In test [2], B1 came in with a percent of the protein in Rps2/40S subunit-containing fractions of 55%.
